The chains are these.
B1: Kelch repeat and BTB domain-containing protein 7 (Homo sapiens), Q8WVZ9 (parent)
chain: MQSREDVPRSRRLASPRGGRRPKRISKPSVSAFFTGPEELKDTAHSAALLAQLKSFYDARLLCDVTIEVVTPGSGPGTGRLFSCNRNVLAAACPYFKSMFTGGMYESQQASVTMHDVDAESFEVLVDYCYTGRVSLSEANVQRLYAASDMLQLEYVREACASFLARRLDLTNCTAILKFADAFDHHKLRSQAQSYIAHNFKQLSRMGSIREETLADLTLAQLLAVLRLDSLDIESERTVCHVAVQWLEAAAKERGPSAAEVFKCVRWMHFTEEDQDYLEGLLTKPIVKKYCLDVIEGALQMRYGDLLYKSLVPVPNSSSSSSSSNSLVSAAENPPQRLGMCAKEMVIFFGHPRDPFLCYDPYSGDIYTMPSPLTSFAHTKTVTSSAVCVSPDHDIYLAAQPRKDLWVYKPAQNSWQQLADRLLCREGMDVAYLNGYIYILGGRDPITGVKLKEVECYSVQRNQWALVAPVPHSFYSFELIVVQNYLYAVNSKRMLCYDPSHNMWLNCASLKRSDFQEACVFNDEIYCICDIPVMKVYNPARGEWRRISNIPLDSETHNYQIVNHDQKLLLITSTTPQWKKNRVTVYEYDTREDQWINIGTMLGLLQFDSGFICLCARVYPSCLEPGQSFITEEDDARSESSTEWDLDGFSELDSESGSSSSFSDDEVWVQVAPQRNAQDQQGSL
B2: Kelch repeat and BTB domain-containing protein 6 (Homo sapiens), Q86V97 (parent)
chain: MQSREDAPRSRRLASPRGGKRPKKIHKPTVSAFFTGPEELKDTAHSAALLAQLKSFYDARLLCDVTIEVVTPGSGPGTGRLFPCNRNVLAAACPYFKSMFTGGMYESQQASVTMHDVDAESFEVLVDYCYTGRVSLSEANVERLYAASDMLQLEYVREACASFLARRLDLTNCTAILKFADAFGHRKLRSQAQSYIAQNFKQLSHMGSIREETLADLTLAQLLAVLRLDSLDVESEQTVCHVAVQWLEAAPKERGPSAAEVFKCVRWMHFTEEDQDYLEGLLTKPIVKKYCLDVIEGALQMRYGDLLYKSLVPVPNSSSSSSSSNSLVSAAENPPQRLGMCAKEMVIFFGHPRDPFLCCDPYSGDLYKVPSPLTCLAHTRTVTTLAVCISPDHDIYLAAQPRTDLWVYKPAQNSWQQLADRLLCREGMDVAYLNGYIYILGGRDPITGVKLKEVECYNVKRNQWALVAPLPHSFLSFDLMVIRDYLYALNSKRMFCYDPSHNMWLKCVSLKRNDFQEACVFNEEIYCICDIPVMKVYNPVRAEWRQMNNIPLVSETNNYRIIKHGQKLLLITSRTPQWKKNRVTVYEYDIRGDQWINIGTTLGLLQFDSNFFCLSARVYPSCLEPGQSFLTEEEEIPSESSTEWDLGGFSEPDSESGSSSSLSDDDFWVRVAPQ

In the first test the parent is B1. The conditions noted are these: with tiam1_human TIAM1, Q13009.
Target sequence in this assay (Q13009 whole entry): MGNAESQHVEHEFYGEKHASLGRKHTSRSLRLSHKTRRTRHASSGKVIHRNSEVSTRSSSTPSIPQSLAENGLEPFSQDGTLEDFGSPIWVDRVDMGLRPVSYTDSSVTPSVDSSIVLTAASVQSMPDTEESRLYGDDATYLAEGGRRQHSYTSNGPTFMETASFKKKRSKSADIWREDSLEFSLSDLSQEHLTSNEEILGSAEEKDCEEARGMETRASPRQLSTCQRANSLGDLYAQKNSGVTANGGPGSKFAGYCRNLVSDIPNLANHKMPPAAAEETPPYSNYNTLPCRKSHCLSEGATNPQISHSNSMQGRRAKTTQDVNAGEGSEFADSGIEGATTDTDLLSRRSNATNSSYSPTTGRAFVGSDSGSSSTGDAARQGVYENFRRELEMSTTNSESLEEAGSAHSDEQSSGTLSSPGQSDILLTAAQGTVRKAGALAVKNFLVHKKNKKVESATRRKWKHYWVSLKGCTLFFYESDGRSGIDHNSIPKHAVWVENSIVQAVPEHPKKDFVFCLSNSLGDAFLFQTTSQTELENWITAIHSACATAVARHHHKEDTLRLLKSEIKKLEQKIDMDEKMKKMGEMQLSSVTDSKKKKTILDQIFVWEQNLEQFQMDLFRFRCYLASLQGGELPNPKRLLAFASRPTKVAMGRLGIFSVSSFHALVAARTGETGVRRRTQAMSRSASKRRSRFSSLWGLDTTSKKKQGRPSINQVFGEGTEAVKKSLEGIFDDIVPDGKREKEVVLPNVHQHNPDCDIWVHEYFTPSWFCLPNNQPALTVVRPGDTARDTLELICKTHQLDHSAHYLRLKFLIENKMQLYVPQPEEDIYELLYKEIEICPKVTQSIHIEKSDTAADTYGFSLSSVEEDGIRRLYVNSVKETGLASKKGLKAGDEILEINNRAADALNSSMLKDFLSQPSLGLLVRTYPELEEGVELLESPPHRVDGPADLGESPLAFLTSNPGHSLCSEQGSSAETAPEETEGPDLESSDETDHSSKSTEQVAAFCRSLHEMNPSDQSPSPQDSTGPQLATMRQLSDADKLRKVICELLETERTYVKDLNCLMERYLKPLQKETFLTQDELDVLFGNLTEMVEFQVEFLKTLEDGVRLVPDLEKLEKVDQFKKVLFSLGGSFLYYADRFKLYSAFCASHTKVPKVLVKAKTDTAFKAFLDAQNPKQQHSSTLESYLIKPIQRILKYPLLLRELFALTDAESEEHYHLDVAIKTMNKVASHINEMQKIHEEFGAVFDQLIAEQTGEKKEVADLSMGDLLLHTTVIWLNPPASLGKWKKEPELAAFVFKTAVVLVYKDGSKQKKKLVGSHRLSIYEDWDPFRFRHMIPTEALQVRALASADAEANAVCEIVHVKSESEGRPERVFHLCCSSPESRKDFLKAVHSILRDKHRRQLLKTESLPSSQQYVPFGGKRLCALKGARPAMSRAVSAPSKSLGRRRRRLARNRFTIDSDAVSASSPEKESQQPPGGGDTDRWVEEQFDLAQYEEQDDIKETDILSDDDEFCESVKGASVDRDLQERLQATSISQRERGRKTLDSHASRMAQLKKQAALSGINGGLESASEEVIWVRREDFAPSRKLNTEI
W668A: the “effect of a mutation on the interaction” value is listed as “decreasing interaction strength”.

As to M99A, the “effect of a mutation on the interaction” value was “with no effect”.

In a further test the parent is B1. The following applies: with gbrap_human GABARAP.
As to W668A, the “effect of a mutation on the interaction” value is listed as “decreasing interaction strength”.

Turning to F122A, the “effect of a mutation on the interaction” value is recorded as “with no effect”.

As for Y559A, the “effect of a mutation on the interaction” value is reported as “with no effect”.

As for F649A, the “effect of a mutation on the interaction” value is reported as “with no effect”.

In the next test the parent is B1. The following applies: with gbrl2_human GABARAPL2, P60520.
gbrl2_human GABARAPL2, P60520, sequence (P60520 whole entry): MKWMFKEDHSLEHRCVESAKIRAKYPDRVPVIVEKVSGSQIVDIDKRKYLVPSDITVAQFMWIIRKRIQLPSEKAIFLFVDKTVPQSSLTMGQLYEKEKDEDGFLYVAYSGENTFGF
As to W668A, the “effect of a mutation on the interaction” value is “with no effect”.

For F122A, the “effect of a mutation on the interaction” value is reported as “with no effect”.

Regarding Y559A, the “effect of a mutation on the interaction” value is “with no effect”.

F649A: the “effect of a mutation on the interaction” value is listed as “with no effect”.

The variants in another test derive from B1. The following applies: with mlp3b_human MAP1LC3B.
Take W668A: the “effect of a mutation on the interaction” value is given as “disrupting interaction strength”.

F122A: the “effect of a mutation on the interaction” value was “with no effect”.

With Y559A, the “effect of a mutation on the interaction” value is listed as “with no effect”.

Take F649A: the “effect of a mutation on the interaction” value is “with no effect”.

The variants in another test derive from B1. The conditions noted are these: with cul3_human CUL3, Q13618.
Consider M99A, for which the “effect of a mutation on the interaction” value is “disrupting interaction strength”.

Another test covers variants of B2. The conditions noted are these: with tiam1_human TIAM1, Q13009.
Target sequence in this assay (Q13009 whole entry): as the sequence (Q13009 whole entry) above
With W668A, the “effect of a mutation on the interaction” value is “decreasing interaction strength”.

The variants in the next test derive from B2. The conditions noted are these: with cul3_human CUL3, Q13618.
M99A: the “effect of a mutation on the interaction” value is on record as “disrupting interaction strength”.

The values are drawn from IntAct's records for PubMed 25684205.
